US20260116960A1 (SHANGHAI HONGCHENG BIOPHARMACEUTICAL, published 2026)

Legend:
[1] = target: T1, human PD-1 on the cell surface (human, UniProt Q15116 25-288); experiment: flow cytometry competition, 293T-hPD-1 cells, biotin-human PD-L1
T1 construct: whole, on cells; also called cell surface PD-1

[2] = target: T2, Biotinylated Human VEGF165 (Acro, Catalog No. VE5-H82Q0) (human, UniProt P15692-4 27-191, biotinylated (site not stated)); experiment: flow cytometry: antibody titrated on 293T-hPD-1-hCTLA-4 cells, detected with 2 ug/mL biotin-hVEGF165 and PE streptavidin
T2 construct: Bought protein; also called Biotinylated-hVEGF165; Biotin-hVEGF165
T2 sequence (P15692 other isoform, or with tags, fused parts or gaps limits assumed): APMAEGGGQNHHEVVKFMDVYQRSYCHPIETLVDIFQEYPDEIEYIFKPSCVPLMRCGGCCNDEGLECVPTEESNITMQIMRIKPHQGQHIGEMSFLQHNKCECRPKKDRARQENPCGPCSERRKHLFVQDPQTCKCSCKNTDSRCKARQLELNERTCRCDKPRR
Description: After centrifugation at 300 g for 5 minutes, the supernatant was discarded, and 100 μL of trispecific antibody solution serially diluted 3-fold with FACS buffer was added, with a starting concentration of 200 nM, and the same volume of FACS buffer was added as a negative control. After mixing, incubated at 4° C. for 60 minutes. After centrifugation and washing three times with FACS buffer, 2 μg/mL Biotin-hVEGF165 was added at 100 μL/well and incubated at 4° C. for 60 minutes. After centrifugation and washing three times with FACS buffer, 100 μL/well of 1:800 diluted PE Streptavidin (BD, Catalog No.: 554061) was added and incubated at 4° C. for 50 minutes. After centrifugation and washing three times with FACS buffer, 100 μL/well of FACS buffer was added to resuspend the cells, and the fluorescence signal was detected on a flow cytometer (BECKMAN COULTER cytoFLEX). The binding activity was fitted using a four-parameter model, and the EC₅₀ value of each antibody binding was calculated.

[3] = target: T2, Biotinylated Human VEGF165 (Acro, …); experiment: flow cytometry: antibody titrated on CHOK1-hCTLA4 cells, then mixture of hPD1-mFc and biotin-hVEGF165; PE streptavidin signal
Description: (§1) CHOK1-hCTLA4 cells were obtained by trypsin digestion, washed twice with PBS containing 2% FBS (FACS buffer), and the cell density was adjusted to about 8×10⁵ cells/ml. 200 μL/well of the cells were added to a 96-well U-bottom plate. After centrifugation at 300 g for 5 minutes, the supernatant was discarded and 100 μL of antibody solution serially diluted with FACS buffer was added in triplicate (with starting concentration of 200 nM, 3-fold serial dilution, and the same volume of FACS buffer was used as a negative control). Mixed well and incubated at 4° C. for 60 min. After washing the plate three times with FACS buffer, a mixture consisting of 1 μg/mL hPD1-mFc (Acro, Catalog No.: PD1-H5255) and 1 μg/mL Biotin-hVEGF165 in a 1:1 volume ratio was added to each well at 100 μL/well to detect the simultaneously binding activity of the trispecific antibodies to VEGF and PD-1 after binding to cell surface CTLA-4. […] After washing the plate three times with FACS buffer, 100 μL/well of PBS solution was added to resuspend the cells, and the fluorescence signal was detected on a flow cytometer. The binding activity was fitted using a four-parameter model, and the EC₅₀ value of each antibody was calculated.

[4] = target: T3, human PD-1 protein (Acro, Catalog No. PD1-H5221) (human, UniProt Q15116 25-167); experiment: ELISA, plate coated with human PD-1 protein
T3 construct: Bought protein; also called human PD1-his; not shown: his tag
T3 sequence (Q15116 25-167 limits assumed): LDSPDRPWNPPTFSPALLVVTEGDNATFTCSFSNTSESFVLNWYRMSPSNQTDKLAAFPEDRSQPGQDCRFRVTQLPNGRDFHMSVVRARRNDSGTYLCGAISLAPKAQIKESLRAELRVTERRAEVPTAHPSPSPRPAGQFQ

[5] = target: human PD-1 protein (Acro, PD1-H5257) (human, UniProt Q15116 25-167); experiment: competitive ELISA, PD-1 coated, biotin-PD-L1 as labelled ligand
Chain of human PD-1 protein (Acro, PD1-H5257) (Q15116 25-167 limits assumed): as above

[6] = target: T4, hPD1-mFc (Acro, Catalog No. PD1-H5255) (human, UniProt Q15116 25-167); experiment: flow cytometry: antibody titrated on CHOK1-hCTLA4 cells, then mixture of hPD1-mFc and biotin-hVEGF165; AF647 anti-mIgG signal
T4 construct: Bought protein; also called human PD-1 mouse Fc fusion; not shown: mouse Fc (mFc)
T4 sequence (Q15116 25-167 limits assumed): as above
Description: as §1

T1 sequence (Q15116 25-288): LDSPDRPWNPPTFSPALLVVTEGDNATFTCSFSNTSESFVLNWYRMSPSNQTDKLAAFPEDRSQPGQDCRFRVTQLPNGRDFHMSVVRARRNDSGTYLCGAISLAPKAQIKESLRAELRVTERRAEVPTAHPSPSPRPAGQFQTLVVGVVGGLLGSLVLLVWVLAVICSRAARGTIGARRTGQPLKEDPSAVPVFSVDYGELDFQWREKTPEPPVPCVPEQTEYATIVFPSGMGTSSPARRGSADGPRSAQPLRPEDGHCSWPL

B1: HC010-F9 (trispecific antibody, human IgG4 S228P, kappa)
heavy: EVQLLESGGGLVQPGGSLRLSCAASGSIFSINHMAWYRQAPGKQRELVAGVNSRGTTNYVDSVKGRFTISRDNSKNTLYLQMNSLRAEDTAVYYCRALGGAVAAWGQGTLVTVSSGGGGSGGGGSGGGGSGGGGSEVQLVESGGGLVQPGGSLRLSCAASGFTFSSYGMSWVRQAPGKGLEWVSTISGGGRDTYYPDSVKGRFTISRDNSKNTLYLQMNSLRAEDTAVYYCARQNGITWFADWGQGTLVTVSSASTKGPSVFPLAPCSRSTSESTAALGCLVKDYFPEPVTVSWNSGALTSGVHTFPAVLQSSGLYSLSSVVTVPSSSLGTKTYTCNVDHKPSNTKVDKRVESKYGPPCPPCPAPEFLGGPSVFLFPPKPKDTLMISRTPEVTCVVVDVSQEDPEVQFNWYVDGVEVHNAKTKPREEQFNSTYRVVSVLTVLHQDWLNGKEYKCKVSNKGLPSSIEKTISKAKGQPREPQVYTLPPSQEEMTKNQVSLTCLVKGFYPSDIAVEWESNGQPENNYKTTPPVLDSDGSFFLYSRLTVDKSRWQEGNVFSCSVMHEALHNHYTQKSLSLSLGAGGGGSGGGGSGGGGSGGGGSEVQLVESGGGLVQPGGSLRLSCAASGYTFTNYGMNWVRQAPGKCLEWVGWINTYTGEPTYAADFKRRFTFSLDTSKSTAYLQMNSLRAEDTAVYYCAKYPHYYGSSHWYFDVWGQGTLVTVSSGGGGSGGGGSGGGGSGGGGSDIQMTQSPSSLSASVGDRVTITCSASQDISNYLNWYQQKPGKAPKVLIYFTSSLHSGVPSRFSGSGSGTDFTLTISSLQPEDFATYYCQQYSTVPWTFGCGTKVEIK
light: DIQMTQSPSSLSASVGDRVTITCRASESVDNYGISFMNWYQQKPGKAPKLLIYAASNQGSGVPSRFSGSGSGTDFTLTISSLQPEDFATYYCQQSKEVPWTFGGGTKVEIKRTVAAPSVFIFPPSDEQLKSGTASVVCLLNNFYPREAKVQWKVDNALQSGNSQESVTEQDSKDSTYSLSSTLTLSKADYEKHKVYACEVTHQGLSSPVTKSFNRGEC
notes: light: CQ1-3/1-11 VL-kappa; also called H010-F9
[1]
  IC50: 5 nM
[2]
  EC50: 4.2 nM
[3]
  EC50: 1.38 nM
[4]
  EC50: 0.082 nM
[5]
  IC50: 0.923 nM
[6]
  EC50: 1.53 nM

B2: HC010-F10 (trispecific antibody, human IgG4 S228P, kappa)
heavy: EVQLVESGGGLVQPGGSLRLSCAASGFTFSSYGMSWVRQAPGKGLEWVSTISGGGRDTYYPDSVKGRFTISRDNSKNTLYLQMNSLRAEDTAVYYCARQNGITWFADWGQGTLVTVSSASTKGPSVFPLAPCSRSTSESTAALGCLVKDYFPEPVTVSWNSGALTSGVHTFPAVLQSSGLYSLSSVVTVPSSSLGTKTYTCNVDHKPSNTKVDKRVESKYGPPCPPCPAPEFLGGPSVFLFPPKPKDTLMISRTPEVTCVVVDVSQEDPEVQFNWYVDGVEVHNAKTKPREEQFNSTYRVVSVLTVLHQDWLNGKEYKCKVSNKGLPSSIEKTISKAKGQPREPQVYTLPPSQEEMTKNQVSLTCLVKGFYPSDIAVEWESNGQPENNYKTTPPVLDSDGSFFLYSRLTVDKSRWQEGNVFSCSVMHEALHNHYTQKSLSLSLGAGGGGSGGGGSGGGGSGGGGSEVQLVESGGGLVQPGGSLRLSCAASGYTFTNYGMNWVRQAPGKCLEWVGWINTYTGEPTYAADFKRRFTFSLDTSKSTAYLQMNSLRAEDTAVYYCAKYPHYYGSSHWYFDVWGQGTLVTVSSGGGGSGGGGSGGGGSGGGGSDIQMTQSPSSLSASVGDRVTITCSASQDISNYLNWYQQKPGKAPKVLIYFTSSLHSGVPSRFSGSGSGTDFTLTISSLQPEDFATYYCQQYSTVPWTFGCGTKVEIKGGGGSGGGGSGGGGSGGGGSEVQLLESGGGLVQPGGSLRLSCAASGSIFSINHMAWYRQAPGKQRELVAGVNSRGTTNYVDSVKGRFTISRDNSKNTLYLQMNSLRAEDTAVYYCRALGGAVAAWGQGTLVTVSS
light: DIQMTQSPSSLSASVGDRVTITCRASESVDNYGISFMNWYQQKPGKAPKLLIYAASNQGSGVPSRFSGSGSGTDFTLTISSLQPEDFATYYCQQSKEVPWTFGGGTKVEIKRTVAAPSVFIFPPSDEQLKSGTASVVCLLNNFYPREAKVQWKVDNALQSGNSQESVTEQDSKDSTYSLSSTLTLSKADYEKHKVYACEVTHQGLSSPVTKSFNRGEC
notes: light: CQ1-3/1-11 VL-kappa; also called H010-F10
[1]
  IC50: 4.5 nM
[2]
  EC50: 4.9 nM
[3]
  EC50: 1.37 nM
[4]
  EC50: 0.093 nM
[5]
  IC50: 0.837 nM
[6]
  EC50: 2.73 nM
